Key:
Fis [1] = target: T1, Fis (Escherichia coli DH5alpha, UniProt P0A6R3 1-98); assay: EMSA; significant complex at 0.25 uM Fis, stronger than FIS2; salmon sperm DNA; 20 mM HEPES (pH not stated), 150 mM NaCl, 500 ug/mL BSA, 1 mM DTT, 0.1 mM EDTA, 0.5-1 ug/ul salmon sperm DNA, room temperature 30 min; DNA 100 nM or 500 nM-1 uM (Methods); 6% gel, 0.5x TBE; settings: protein: recombinant; tags: N-terminal GST (pGEX-KG); label: 5'-biotin on forward strand; blunt
Fis [2] = target: T1, Fis; assay: EMSA; complex detectable at 0.25-0.50 uM Fis; salmon sperm DNA; 20 mM HEPES (pH not stated), 150 mM NaCl, 500 ug/mL BSA, 1 mM DTT, 0.1 mM EDTA, 0.5-1 ug/ul salmon sperm DNA, room temperature 30 min; DNA 100 nM or 500 nM-1 uM (Methods); 6% gel, 0.5x TBE; settings: protein: recombinant; tags: N-terminal GST (pGEX-KG); label: 5'-biotin on forward strand; blunt

T1 sequence (P0A6R3 whole entry): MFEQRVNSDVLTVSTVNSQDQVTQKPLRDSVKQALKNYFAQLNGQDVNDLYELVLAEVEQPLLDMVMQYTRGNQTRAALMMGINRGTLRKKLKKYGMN

B1: FIS2m2 (dsDNA)
DNA 1: AAATTTGTTTGGGCGCTGAGCAAATTT
DNA 2: AAATTTGCTCAGCGCCCAAACAAATTT
modifications: O6-methylguanine at nt 12 and 15 of strand 1 (positions -2, +1)
Fis [1]
  binding result: binds

B2: FIS1 (dsDNA)
DNA 1: AAATTTGTTTGAATTTTGAGCAAATTT
DNA 2: AAATTTGCTCAAAATTCAAACAAATTT
Fis [2]
  binding result: binds

Reference: publication PMC3547798, “Binding of Nucleoid-Associated Protein Fis to DNA Is Regulated by DNA Breathing Dynamics”
